Experimental data as given in patent publication US20250262210A1 (TRUSTEES OF COLUMBIA UNIVERSITY IN THE CITY OF NEW YORK, published 2025).

Columns and labels:
Assay in all cases: IP/MS, LZTR1 wild type-FLAG, U87
FKBP15 = molecular target: T1, FKBP15 (human, UniProt Q5T1M5 1-1219, limits assumed)
T1 sequence (looked up): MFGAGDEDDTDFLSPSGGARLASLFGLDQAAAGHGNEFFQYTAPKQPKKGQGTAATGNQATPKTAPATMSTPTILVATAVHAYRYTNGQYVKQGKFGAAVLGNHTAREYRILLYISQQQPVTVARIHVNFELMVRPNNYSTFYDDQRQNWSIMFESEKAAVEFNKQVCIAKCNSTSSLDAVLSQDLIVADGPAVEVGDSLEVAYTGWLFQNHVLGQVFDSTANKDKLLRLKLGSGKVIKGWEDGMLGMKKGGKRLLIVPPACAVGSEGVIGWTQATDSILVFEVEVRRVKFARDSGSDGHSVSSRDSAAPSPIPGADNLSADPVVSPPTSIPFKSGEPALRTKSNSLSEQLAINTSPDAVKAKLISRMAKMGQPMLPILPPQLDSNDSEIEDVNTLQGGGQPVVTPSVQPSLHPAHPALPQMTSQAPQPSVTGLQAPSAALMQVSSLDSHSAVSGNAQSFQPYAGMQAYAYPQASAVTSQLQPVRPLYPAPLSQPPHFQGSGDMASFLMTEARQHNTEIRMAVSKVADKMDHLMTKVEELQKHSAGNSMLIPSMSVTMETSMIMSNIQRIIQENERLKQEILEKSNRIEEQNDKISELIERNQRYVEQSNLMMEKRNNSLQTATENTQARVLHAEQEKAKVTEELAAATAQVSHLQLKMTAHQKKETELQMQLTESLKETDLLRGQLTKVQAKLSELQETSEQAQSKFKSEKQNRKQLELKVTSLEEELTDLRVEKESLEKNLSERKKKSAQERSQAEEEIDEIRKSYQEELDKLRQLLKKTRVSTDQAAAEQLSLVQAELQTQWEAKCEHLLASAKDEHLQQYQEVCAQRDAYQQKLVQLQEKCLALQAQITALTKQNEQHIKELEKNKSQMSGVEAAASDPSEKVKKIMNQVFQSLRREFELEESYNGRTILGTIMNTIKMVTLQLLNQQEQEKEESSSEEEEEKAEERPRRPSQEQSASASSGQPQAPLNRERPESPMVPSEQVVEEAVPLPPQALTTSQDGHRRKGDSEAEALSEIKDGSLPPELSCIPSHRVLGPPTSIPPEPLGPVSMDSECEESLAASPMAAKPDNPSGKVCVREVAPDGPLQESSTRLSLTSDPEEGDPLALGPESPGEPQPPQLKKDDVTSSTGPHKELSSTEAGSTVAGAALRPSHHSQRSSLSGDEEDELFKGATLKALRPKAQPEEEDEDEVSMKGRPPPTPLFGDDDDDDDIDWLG
In short: (§1)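 Gel slices were reduced with 5 mM DTT, alkylated with 11 mM IAA and digested overnight at 37° C. with trypsin. Peptides were analysed on an Orbitrap Fusion Tribrid by LC-MS/MS.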

RICTOR = RICTOR (human, UniProt Q6R327 1-1708, limits assumed)
RICTOR, sequence (Q6R327 whole entry): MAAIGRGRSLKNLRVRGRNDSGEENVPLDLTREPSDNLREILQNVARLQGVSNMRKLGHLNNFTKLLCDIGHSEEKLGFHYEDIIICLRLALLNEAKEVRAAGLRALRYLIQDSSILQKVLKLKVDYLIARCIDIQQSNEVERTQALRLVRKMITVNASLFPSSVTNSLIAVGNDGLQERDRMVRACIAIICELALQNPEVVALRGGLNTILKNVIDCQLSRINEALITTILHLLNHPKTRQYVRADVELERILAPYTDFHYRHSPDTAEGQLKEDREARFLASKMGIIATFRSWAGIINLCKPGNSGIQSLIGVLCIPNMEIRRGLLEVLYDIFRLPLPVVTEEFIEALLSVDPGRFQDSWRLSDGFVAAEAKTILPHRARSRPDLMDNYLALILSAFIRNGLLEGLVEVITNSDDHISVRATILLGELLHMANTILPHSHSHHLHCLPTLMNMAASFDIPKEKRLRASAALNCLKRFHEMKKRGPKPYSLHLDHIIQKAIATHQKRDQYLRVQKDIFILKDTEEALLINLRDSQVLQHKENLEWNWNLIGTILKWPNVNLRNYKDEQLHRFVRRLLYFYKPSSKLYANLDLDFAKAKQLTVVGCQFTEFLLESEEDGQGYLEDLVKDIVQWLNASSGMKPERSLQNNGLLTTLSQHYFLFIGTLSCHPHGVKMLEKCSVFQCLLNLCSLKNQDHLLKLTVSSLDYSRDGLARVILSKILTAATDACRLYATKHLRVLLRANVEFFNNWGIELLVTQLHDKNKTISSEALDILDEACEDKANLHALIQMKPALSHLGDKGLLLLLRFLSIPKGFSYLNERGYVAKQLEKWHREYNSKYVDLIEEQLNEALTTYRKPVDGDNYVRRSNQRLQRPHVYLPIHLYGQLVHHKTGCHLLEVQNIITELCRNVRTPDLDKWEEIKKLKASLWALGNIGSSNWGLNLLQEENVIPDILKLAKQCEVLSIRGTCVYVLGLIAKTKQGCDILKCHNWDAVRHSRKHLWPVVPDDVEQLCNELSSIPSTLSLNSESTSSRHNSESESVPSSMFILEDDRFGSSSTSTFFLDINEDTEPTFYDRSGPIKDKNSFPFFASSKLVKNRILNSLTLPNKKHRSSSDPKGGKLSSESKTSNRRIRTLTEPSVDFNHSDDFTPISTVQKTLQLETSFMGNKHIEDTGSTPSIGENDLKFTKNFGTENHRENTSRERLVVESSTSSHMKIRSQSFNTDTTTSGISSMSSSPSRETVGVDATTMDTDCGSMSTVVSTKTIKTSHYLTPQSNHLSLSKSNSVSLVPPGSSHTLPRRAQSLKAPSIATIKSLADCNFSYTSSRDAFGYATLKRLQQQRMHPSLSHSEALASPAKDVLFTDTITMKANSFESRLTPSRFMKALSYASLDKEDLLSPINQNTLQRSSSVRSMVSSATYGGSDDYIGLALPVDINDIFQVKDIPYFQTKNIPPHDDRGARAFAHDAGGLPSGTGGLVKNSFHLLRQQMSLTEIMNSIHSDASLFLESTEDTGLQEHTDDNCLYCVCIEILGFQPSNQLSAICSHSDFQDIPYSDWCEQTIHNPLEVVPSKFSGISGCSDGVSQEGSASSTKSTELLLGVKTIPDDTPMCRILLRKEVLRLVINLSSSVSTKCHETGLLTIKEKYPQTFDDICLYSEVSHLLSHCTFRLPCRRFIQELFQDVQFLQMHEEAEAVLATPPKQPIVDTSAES
In short: as §1

EMC1 = molecular target: T2, EMC1 (human, UniProt Q8N766 23-993, limits assumed)
T2 sequence (looked up): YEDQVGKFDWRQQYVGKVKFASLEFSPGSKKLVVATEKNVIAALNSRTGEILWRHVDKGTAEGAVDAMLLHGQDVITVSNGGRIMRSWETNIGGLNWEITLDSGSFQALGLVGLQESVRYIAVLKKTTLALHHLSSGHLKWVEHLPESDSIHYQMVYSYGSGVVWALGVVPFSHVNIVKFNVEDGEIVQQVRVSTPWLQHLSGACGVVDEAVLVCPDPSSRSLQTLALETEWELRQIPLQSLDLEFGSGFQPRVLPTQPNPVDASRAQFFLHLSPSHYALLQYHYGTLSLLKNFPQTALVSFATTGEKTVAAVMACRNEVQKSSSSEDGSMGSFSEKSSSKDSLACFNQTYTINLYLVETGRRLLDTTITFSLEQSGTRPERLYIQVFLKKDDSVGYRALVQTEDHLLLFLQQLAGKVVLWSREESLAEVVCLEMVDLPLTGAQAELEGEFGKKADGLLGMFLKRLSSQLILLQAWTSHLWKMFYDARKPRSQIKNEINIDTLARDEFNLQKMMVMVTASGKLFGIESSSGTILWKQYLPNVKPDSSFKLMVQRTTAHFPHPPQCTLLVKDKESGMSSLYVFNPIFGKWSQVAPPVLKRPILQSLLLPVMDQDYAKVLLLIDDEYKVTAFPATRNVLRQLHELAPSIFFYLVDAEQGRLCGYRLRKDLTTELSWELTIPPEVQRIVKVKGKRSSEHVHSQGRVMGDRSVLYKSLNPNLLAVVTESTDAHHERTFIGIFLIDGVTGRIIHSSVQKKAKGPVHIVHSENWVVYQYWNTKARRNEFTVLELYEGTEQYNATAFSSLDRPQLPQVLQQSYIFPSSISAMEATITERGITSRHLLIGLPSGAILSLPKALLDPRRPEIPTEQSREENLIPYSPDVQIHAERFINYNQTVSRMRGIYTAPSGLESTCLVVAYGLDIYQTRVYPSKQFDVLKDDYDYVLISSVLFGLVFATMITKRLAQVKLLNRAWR
In short: as §1

Measured: binding result

B1: LZTR1-FLAG (other, human, UniProt Q8N653 1-840, looked up)
chain: MAGPGSTGGQIGAAALAGGARSKVAPSVDFDHSCSDSVEYLTLNFGPFETVHRWRRLPPCDEFVGARRSKHTVVAYKDAIYVFGGDNGKTMLNDLLRFDVKDCSWCRAFTTGTPPAPRYHHSAVVYGSSMFVFGGYTGDIYSNSNLKNKNDLFEYKFATGQWTEWKIEGRLPVARSAHGATVYSDKLWIFAGYDGNARLNDMWTIGLQDRELTCWEEVAQSGEIPPSCCNFPVAVCRDKMFVFSGQSGAKITNNLFQFEFKDKTWTRIPTEHLLRGSPPPPQRRYGHTMVAFDRHLYVFGGAADNTLPNELHCYDVDFQTWEVVQPSSDSEVGGAEVPERACASEEVPTLTYEERVGFKKSRDVFGLDFGTTSAKQPTQPASELPSGRLFHAAAVISDAMYIFGGTVDNNIRSGEMYRFQFSCYPKCTLHEDYGRLWESRQFCDVEFVLGEKEECVQGHVAIVTARSRWLRRKITQARERLAQKLEQEAAPVPREAPGVAAGGARPPLLHVAIREAEARPFEVLMQFLYTDKIKYPRKGHVEDVLLIMDVYKLALSFQLCRLEQLCRQYIEASVDLQNVLVVCESAARLQLSQLKEHCLNFVVKESHFNQVIMMKEFERLSSPLIVEIVRRKQQPPPRTPLDQPVDIGTSLIQDMKAYLEGAGAEFCDITLLLDGHPRPAHKAILAARSSYFEAMFRSFMPEDGQVNISIGEMVPSRQAFESMLRYIYYGEVNMPPEDSLYLFAAPYYYGFYNNRLQAYCKQNLEMNVTVQNVLQILEAADKTQALDMKRHCLHIIVHQFTKVSKLPTLRSLSQQLLLDIIDSLASHISDKQCAELGADI
notes: Expressed in HEK 293T, HeLa or U87 cells; used as cell lysate; also called LZTR1 wild type-FLAG; LZTR1 WT; not shown: FLAG tag at the C-terminus
binds: all assays above
